B1: Endothelial transcription factor GATA-2 (Homo sapiens), P23769 (parent)
chain: MEVAPEQPRWMAHPAVLNAQHPDSHHPGLAHNYMEPAQLLPPDEVDVFFNHLDSQGNPYYANPAHARARVSYSPAHARLTGGQMCRPHLLHSPGLPWLDGGKAALSAAAAHHHNPWTVSPFSKTPLHPSAAGGPGGPLSVYPGAGGGSGGGSGSSVASLTPTAAHSGSHLFGFPPTPPKEVSPDPSTTGAASPASSSAGGSAARGEDKDGVKYQVSLTESMKMESGSPLRPGLATMGTQPATHHPIPTYPSYVPAAAHDYSSGLFHPGGFLGGPASSFTPKQRSKARSCSEGRECVNCGATATPLWRRDGTGHYLCNACGLYHKMNGQNRPLIKPKRRLSAARRAGTCCANCQTTTTTLWRRNANGDPVCNACGLYYKLHNVNRPLTMKKEGIQTRNRKMSNKSKKSKKGAECFEELSKCMQEKSSPFSAAALAGHMAPVGHLPPFSHSGHILPTPTPIHPSSSLSFGHPHPSSMVTAMG
B2: Coiled-coil domain-containing protein 74A (Homo sapiens), Q96AQ1 (parent)
chain: MSGAGVAAGTRPPSSPTPGSRRRRQRPSVGVQSLRPQSPQLRQSDPQKRNLDLEKSLQFLQQQHSEMLAKLHEEIEHLKRENKDLHYKLIMNQTSQKKDGPSGNHLSRASAPLGARWVCINGVWVEPGGPSPARLKEGSSRTHRPGGKRGRLAGGSADTVRSPADSLSMSSFQSVKSISNSGKARPQPGSFNKQDSKADVSQKADLEEEPLLHNSKLDKVPGVQGQARKEKAEASNAGAACMGNSQHQGRQMGAGAHPPMILPLPLRKPTTLRQCEVLIRELWNTNLLQTQELRHLKSLLEGSQRPQAAPEEASFPRDQEATHFPKVSTKSLSKKCLSPPVAERAILPALKQTPKNNFAERQKRLQAMQKRRLHRSVL
B3: "N-acyl-aromatic-L-amino acid amidohydrolase (carboxylate-forming)" (Homo sapiens), Q96HD9 (parent)
chain: MCSLPVPREPLRRVAVTGGTHGNEMSGVYLARHWLHAPAELQRASFSAVPVLANPAATSGCRRYVDHDLNRTFTSSFLNSRPTPDDPYEVTRARELNQLLGPKASGQAFDFVLDLHNTTANMGTCLIAKSSHEVFAMHLCRHLQLQYPELSCQVFLYQRSGEESYNLDSVAKNGLGLELGPQPQGVLRADIFSRMRTLVATVLDFIELFNQGTAFPAFEMEAYRPVGVVDFPRTEAGHLAGTVHPQLQDRDFQPLQPGAPIFQMFSGEDLLYEGESTVYPVFINEAAYYEKGVAFVQTEKFTFTVPAMPALTPAPSPAS
partner: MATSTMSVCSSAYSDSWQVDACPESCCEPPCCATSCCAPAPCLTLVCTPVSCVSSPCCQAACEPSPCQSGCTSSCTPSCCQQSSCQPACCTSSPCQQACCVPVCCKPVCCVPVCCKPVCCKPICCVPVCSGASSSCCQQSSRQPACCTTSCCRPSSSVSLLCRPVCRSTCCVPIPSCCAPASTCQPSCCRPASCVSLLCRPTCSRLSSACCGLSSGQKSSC

The variants in one test derive from B1. Particulars: with fhl3_human FHL3, Q13643.
fhl3_human FHL3, Q13643, sequence (Q13643 whole entry): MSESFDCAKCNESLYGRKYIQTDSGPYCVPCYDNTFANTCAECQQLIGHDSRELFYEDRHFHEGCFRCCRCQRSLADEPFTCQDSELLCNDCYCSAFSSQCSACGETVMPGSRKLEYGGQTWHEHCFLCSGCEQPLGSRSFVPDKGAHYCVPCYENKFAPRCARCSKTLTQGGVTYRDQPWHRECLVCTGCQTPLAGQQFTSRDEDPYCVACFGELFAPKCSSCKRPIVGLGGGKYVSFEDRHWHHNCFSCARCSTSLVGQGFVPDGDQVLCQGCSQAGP
For A164T, the “effect of a mutation on the interaction” value was “with no effect”.

The variants in a further test derive from B1. Particulars: with psa3_human PSMA3, P25788.
psa3_human PSMA3, P25788, sequence (P25788 whole entry): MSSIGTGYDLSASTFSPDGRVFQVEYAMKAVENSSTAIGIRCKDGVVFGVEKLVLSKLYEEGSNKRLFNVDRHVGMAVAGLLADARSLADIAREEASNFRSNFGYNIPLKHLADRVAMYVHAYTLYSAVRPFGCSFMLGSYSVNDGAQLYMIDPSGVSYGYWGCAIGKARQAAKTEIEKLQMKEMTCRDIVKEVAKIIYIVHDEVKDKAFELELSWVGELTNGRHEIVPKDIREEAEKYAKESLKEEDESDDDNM
For A164T, the “effect of a mutation on the interaction” value is “with no effect”.

Variants of B1 are the subject of a further test. Particulars: with tri23_human TRIM23, P36406.
tri23_human TRIM23, P36406, sequence (P36406 whole entry): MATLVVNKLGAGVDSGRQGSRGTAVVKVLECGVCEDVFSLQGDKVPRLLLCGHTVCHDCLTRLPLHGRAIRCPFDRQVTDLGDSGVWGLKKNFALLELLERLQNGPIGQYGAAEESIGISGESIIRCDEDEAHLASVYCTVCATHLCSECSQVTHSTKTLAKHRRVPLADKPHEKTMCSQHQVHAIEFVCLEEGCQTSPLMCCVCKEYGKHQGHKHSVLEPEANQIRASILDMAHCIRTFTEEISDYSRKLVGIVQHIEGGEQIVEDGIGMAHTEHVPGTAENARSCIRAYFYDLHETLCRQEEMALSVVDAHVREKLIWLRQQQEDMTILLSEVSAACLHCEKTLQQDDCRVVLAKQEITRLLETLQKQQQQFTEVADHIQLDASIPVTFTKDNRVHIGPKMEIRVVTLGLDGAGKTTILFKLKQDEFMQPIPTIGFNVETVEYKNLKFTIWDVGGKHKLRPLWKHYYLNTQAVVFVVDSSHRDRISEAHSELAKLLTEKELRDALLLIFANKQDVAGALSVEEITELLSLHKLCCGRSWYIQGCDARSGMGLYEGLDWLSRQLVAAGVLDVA
Consider A164T, for which the “effect of a mutation on the interaction” value is “with no effect”.

In the next test the parent is B1. Particulars: with mdfi_human MDFI.
Regarding A164T, the “effect of a mutation on the interaction” value is reported as “with no effect”.

In another test the parent is B2. The following applies: with mtus2_human MTUS2, Q5JR59.
mtus2_human MTUS2, Q5JR59, sequence (Q5JR59 whole entry): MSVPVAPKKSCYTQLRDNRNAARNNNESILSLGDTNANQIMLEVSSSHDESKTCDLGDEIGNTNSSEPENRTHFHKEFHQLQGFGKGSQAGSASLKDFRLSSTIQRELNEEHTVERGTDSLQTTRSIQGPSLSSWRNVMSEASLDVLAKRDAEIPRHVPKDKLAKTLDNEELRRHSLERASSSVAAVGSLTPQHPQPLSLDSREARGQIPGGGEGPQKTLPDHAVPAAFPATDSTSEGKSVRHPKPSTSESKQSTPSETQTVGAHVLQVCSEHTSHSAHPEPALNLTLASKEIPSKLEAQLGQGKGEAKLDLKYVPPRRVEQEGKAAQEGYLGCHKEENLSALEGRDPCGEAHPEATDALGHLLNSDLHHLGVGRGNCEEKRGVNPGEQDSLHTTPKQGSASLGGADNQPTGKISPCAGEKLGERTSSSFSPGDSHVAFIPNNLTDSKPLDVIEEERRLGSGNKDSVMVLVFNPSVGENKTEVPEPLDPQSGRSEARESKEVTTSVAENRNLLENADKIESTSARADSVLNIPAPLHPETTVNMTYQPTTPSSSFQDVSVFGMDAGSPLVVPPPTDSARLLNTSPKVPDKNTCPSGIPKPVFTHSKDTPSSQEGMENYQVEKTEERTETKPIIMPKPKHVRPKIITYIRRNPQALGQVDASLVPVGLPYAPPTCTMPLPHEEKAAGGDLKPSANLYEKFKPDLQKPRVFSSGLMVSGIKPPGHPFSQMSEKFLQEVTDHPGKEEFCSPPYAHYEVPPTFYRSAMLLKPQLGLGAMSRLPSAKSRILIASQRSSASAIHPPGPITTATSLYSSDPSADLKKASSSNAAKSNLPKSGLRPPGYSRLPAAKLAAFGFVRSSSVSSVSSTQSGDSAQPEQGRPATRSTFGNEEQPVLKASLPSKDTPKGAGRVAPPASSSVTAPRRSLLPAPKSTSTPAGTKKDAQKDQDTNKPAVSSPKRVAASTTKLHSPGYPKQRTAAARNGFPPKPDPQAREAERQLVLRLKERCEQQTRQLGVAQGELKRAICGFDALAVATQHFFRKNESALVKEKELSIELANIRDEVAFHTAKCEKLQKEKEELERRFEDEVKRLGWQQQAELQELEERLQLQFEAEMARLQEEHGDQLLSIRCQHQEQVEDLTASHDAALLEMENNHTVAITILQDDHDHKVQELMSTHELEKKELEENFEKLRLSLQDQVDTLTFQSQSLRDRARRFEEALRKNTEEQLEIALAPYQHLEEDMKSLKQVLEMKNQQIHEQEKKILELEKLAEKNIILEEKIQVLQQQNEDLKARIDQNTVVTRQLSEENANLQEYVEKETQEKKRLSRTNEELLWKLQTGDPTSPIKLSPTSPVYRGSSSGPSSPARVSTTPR
Turning to G302R, the “effect of a mutation on the interaction” value is listed as “with no effect”.

The next test covers variants of B3. Particulars: with kr103_human KRTAP10-3, P60369.
As for R8Q, the “effect of a mutation on the interaction” value is “with no effect”.

The values are drawn from IntAct's records for PubMed 31515488.
